One experiment has as its target T1, HLA-DR15 (DRB1*15:02) (human).
T1 construct: whole, on cells; MHC class II molecule on mouse L-cell transfectants (L-DR15) or donor PBMCs; also called L-DR15
Nature of the experiment: concluded from IFN-gamma ELISPOT restriction analysis (peptide-pulsed L-DR15 cells, blocking mAbs). On the procedure: (§1) On day 5, the DCs were cultured in the presence of the recombinant CDCA1 (50 micro g/ml) and OK432. The protein-loaded mature DCs were harvested on day 7, washed and used as stimulator in IFN-gamma ELISPOT assays. To determine restriction HLA molecules involved in antigen presentation, blocking of antigen-induced IFN-gamma production was investigated by adding anti-HLA-DR mAb (L243, Biolegend), anti-HLA-DP mAb, (B7/21, abcam), anti-human HLA-DQ mAb (SPV-L3, abcam), or anti-HLA class I mAb, (W6/32, abcam). All mAbs were used at a final concentration of 5 micro g/ml. All assessments of IFN-gamma ELISPOT assays were carried out in duplicate or triplicate, and results corresponded to mean values.
(§2) The immune responses of T-cells to PBMC, L-cells, and murine BM-DC pulsed with peptides (10 micro g/mL) or CDCA1 proteins-loaded human DCs (50 micro g/mL) were assessed by IFN-gamma ELISPOT assays (BD Biosciences, San Jose, Calif.) according to manufacturer's instructions and described previously (Zarour H M et al., Cancer Res 2000; 60:4946-52.). In briefly, peptide-pulsed PBMCs (3×10⁴/well), L-cells (5×10⁴/well), T2 cells (2×10⁴/well), C1R-A24 cells (2×10⁴/well), bone marrow-derived DCs (BM-DCs, 2×10⁴/well), or protein-loaded DCs (5×10³/well) were seeded in triplicate or duplicate in the ELISPOT plates as APCs or target cells. […] After incubation for 18 h, spot numbers were counted. […]

Another experiment addresses T2, HLA-DR4 (DRB1*04:05) (human).
T2 construct: whole, on cells; MHC class II molecule on mouse L-cell transfectants (L-DR4), donor PBMCs or DCs; also called L-DR4; L-DR0405
Nature of the experiment: concluded from IFN-gamma ELISPOT restriction analysis (peptide-pulsed L-DR4 cells, blocking mAbs). On the procedure:
as §1, §2

B1: CDCA1 (55-78) long peptide (peptide)
peptide: IVYGIRLEHFYMMPVNSEVMYPHL
notes: Synthetic long peptide (purity >90%), pulsed onto antigen presenting cells; also called CDCA1 (55-78) LP; CDCA1 (55-78)-LP
B1: the binding result with HLA-DR15 (DRB1*15:02) and with HLA-DR4 (DRB1*04:05) was “binds” throughout.

The values above are taken from patent publication US20150190490A1 (ONCOTHERAPY SCIENCE, published 2015).
